Assays:
[1] = tested on: 2G12 (anti-HIV gp120 broadly neutralizing antibody); experiment: filter; details: 2'-F pyrimidines, every U is 2'-F-5-ethynyl-U clicked to Man9-cyclohexyl azide (3 glycans)
[2] = tested on: 2G12 (anti-HIV gp120 broadly neutralizing antibody); experiment: pulldown; details: 2'-F pyrimidines, qPCR bead assay as glyco-RNA/DNA hybrid
[3] = tested on: 2G12 (anti-HIV gp120 broadly neutralizing antibody); experiment: FP filter; details: 2'-F pyrimidines; every U is 2'-F-5-ethynyl-U clicked to Man9-cyclohexyl azide (4 glycans); nitrocellulose filter binding, 32P RNA not gel purified; 20 mM Tris pH 7.5, 150 mM NaCl, 2 mM MgSO4; Fbmax 7.0%

## GGAGAGAAGGAGGGAAGAGAGAAAAAAAAAAGCGCCCAGGUGAUUGGGCGCAAGCGACACAAAGCCCGG [15F3-M1-Mod]
[1]; gel purified and refolded, Fbmax 51%
  Kd: 36 nM

## GGAGAGAAGGAGGGAAGAGAGAAAAAAAACAGAGGGAACCCAGGUGAUUGGGGCAAGCGACACAAAGCCCGG [15F3-M1]
[2]; every U is 2'-F-5-ethynyl-U clicked to Man9-cyclohexyl azide (3 glycans), Fbmax 1.1%
  Kd: 31 nM

## GGAGAGAAGGAGGGAAGAGAGAAAAAAAACAUAGGGAACCCAGGUGAUUGGGGCAAGCGACACAAAGCCCGG [15F3]
[2]; every U is 2'-F-5-ethynyl-U clicked to Man9-cyclohexyl azide (4 glycans), room temperature, Fbmax 3.8%
  Kd: 19 nM
[3]
  Kd: 13 nM

## GGAGAGAAGGAGGGAAGAGAGAAAAAAUCGACGGAACAGGGGCCCCCUGUGGAAAGCGACACAAAGCCCGG [15F1]
[1]; 20 mM Tris pH 7.5, 150 mM NaCl, 2 mM MgSO4, not gel purified, Fbmax 23%
  Kd: 40 nM
[2]; every U is 2'-F-5-ethynyl-U clicked to Man9-cyclohexyl azide (3 glycans), room temperature, Fbmax 7.9%
  Kd: 40 nM

Reference: patent US20250281598
